Measurements: the nanobody polyreactivity screen of Harvey et al. (2022)

assay: yeast display, Sf9 membrane polyspecificity reagent, FACS + sequencing; frameworks hold sequencing errors
Method in brief: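 Using colony PCR, genes from sorted yeast display clones were amplified, then sequenced on MiSeq at 2 × 250 and filtered by CDR length. The clones had been stained with 10% biotinylated, detergent-solubilized Sf9 membrane reagent for 1 hour at 4 °C and sorted by FACS into low and high (top ~1%) gates on anti-HA and streptavidin fluorescence. Polyreactivity labels come from the gate of origin.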

Sequence	polyreactivity (PSR sort gate)
QVQLVESGGGLVQAGGSLRLSCAASGSTFNNYGMGWYTQAPGTERELVAAITKSGGITYYADSVKGRFTISRDNAKNTVYLQMNRLKREDTAVYYCAAAYTIYWFSYRVLYYYWGQGTQVTVSS	low polyreactivity
QVQLVESGGGLVQAGGSLRLSCAASRRIFSRYAMGWYRQAPGKERELVAAITGRGGSTYYADSVKGRFTISRDNAKNTVYLQMNSLKPEDTAVYYCAADVPPRRNFVKYYYWGQGTQVTVSS	high polyreactivity
QVQLVESGGGLVQAGGSLRLSCAASGSTLYAYAMGWYRQAPGKERELVAAISSRAVRTYYADSVKGRFTISRDNAKNTVYLQMNSMKPEDTAVYYCAAQRSYAYEYWGQGTQVTVSS	high polyreactivity
QVQLVESGGGLVQAGGSLRLSCAASGSTFHTYVMGWYRQAPGKERELVASISSGGSTYYADSVKGRFTISRDNAKNTVSLQMNSLKPEDTAVYYCAAGYPYYWHFDYWGQGSQVTVSS	low polyreactivity
QVQLVESGGGLVQAGVSLRLSCAASGRIFVGYAMGWYRQAPGKERELVAGIRYSGGSTYYADSVKGRFTISRDNAKNTVYLQMNSLKPEDTAVYYCATQVWHYAGRPNYKYDYWGQGTQVTVSS	low polyreactivity
QVQLVESGGGLVQAGGSLRLSCAASGITFKYNAMGWYRPAPGKERELVAAISSGGNTYYADSVKGRFTISRDNAKNTVYLQMNSLKPEDTAVYYCAAPSYDTLWHDYWGQGTQVTVSS	low polyreactivity
QVQLVESGGGLVQAGGNLLLSCAASGFNFVDYAMGWSRQAPGKERELVASIDRSDGSTYYADSVKGRFTFSRDNAKNTVYLLMNSLKPEDTAVYYCAAADQLYSISTGDYWGQGTQVTVSL	low polyreactivity
QVQLVESGGGLVQAGGSLRLSCAASGRTFWVNAMGSYRQAPGKERELVATIRGSGVSTYYADSVKGRFTISRDNAKNTVYLQMNSLKPEDTAVYYCAAGFAGGYGVTFDYCGQGTQVTVSS	low polyreactivity
QVQLVESGGGLVQAGGSLRLSCAASGFIFSRYGMGWYRQAPGKERELVAAISRSGGSTYYADSVKGRFTISRDNAKNTVYLQMNSLKPEDTAVYYCATAYSWRNADWFAYSYDYWGQGTQVTVSS	low polyreactivity
QVQLVESGGGLVQAGGSLRLSCAASGRTFQINAMGWYRQAPGKERELVAAITWSGGSTYYADSVKRRFTISPDNAKNPVYLQMNSLKPADTALYYCNTRYRAYATLNLIAGYNSWGQGTQVTVSS	low polyreactivity
QVQLVESGVCLDQAGGSLRLSCAASGRTFDYNAMGWYSQAPGKERELVAAIDSDGSTNYADSVKGRFTISRDNAKNTVYLQMNSLKPEDTAVYYCAASTLVVWKPGWQVEYGYWGQGTQVTVSS	low polyreactivity
QVQLVESGGGLVQAGGSLRLSCAASGLTFRYYAMGWYRQAPGKERELVAAISSRGASTYYADSVKGRFTISRDNAKNTVYLQMNSLKPEDTAVYYCAVRTYVYHWSFSSLPYDYWGEGTQVTVSS	high polyreactivity
QVQLEESGGGLVQAGGSLRLSSAASGGIFDVSHMGWYRQAPGKERELVAAISENGGSTYYADSVKGRFTISRDNAKNTVYLLMNSLKPADTAVYYCAADYVSLSVFSYWAWYDYWGHGTQVTVSS	low polyreactivity
QVQLVESGGGLVQAGGSLRLSCAASGRTFYKYAMGWYRQAPGKERELVAAISRRGGSTYYADSVKGRFTISRDNAKNTVYLQMNSLKPEDTAVYDCAADPDTKGFYVYRLVRVRYGYWGQGTQVTVSS	high polyreactivity
QVQLVESGGGLVQAGGSLRLSCAASGSIFPLYGMGWYRQAPGKERELVGAISIGGRTNYADSVKGRFTISRDNAKNTVYLQMNSLKPEDTAVYYCNAVSKFVYRNRILWYDYWGQGTQVTVSS	high polyreactivity
QVQLVESGGGLVQAGGSLRLSCAASGSIFDTYAMGWYRQAPGKERELVAAIRQSGARTYYADSVKGRFTISRDKAKNTVYLQMNSLKPEDTAVYYCAVSYHHYQTWYNYWGQGTQVTVSS	high polyreactivity
QVQLVESGGGLDQAGGSLRLSCAASGFIFNNYAMGSYRQAPGKERELVAAITWSGGGTYYADSVKGRFTISRDNAKNTVYLQMNSLKPEDTAVYYCADYYPAYRDEYWGQGTQVTVSS	high polyreactivity
